In patent publication US20190000971A1 (RESEARCH INSTITUTE AT NATIONWIDE CHILDREN S HOSPITAL, published 2019):

B1: monoclonal antibody IhfA5 NTHI (hybridoma IhfA5 NTHI 14G8.F5.G6, ATCC PTA-122334) (antibody, V domains shown)
VH: EVQLQESGPGLVTPSQSLSMTCTVSGFSLTSYSVHWVRQPPGKSLEWLGVIWAGGSTNYNSALMSRLSISKDNSKSQVFLKMDSLQTDDTAIYYCAREDSWGQGTSVTVSS
VL: DIVMTQSQKFMSTSVGDRVSVTCKASQNVGTNVAWYQQKPGQSPKALIYSASYRYSGVPDRFTGSGSGTDFTLTISNVQSEDLAEYFCQQYNSYPTFGGGTKLEIK
notes: 13; also called mAb IhfA5NTHI
B2: monoclonal antibody mIhfB4 NTHI (hybridoma mIhfB4 NTHI 12E6.F8.D12.D5, ATCC PTA-122335) (antibody, V domains shown)
VH: EVQLQESGAELVRSGASVKLSCTASGFNIKDYYMHWVKQRPEQGLEWIGWIDPENDDTEYVPKFQGKASMTADTSSNTAYLQLSSLTSEDTAVYYCTELGAYWGQGTLV
VL: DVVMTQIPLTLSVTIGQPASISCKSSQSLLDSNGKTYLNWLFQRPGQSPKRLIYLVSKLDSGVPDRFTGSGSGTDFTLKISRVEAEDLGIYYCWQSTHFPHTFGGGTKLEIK
notes: 17; also called Ihf mB4; mB4

How the values were obtained:
[1] = target: T1, Haemophilus influenzae IhfA, A5 fragment (Haemophilus influenzae); assay: ELISA, peptide-coated plate (FIG. 2B/2C)
T1 construct: Synthetic 20-mer peptide; also called IhfA frag; A5
T1 peptide: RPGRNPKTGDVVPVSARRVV

[2] = target: T2, Haemophilus influenzae IhfB, modified B4 (mB4) fragment (Haemophilus influenzae); assay: ELISA (FIG. 2B)
T2 construct: Synthetic 20-mer peptide; also called IhfB frag. mB4
T2 peptide: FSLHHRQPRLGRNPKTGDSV

| Binder | binding result [1] | binding result [2] |
| --- | --- | --- |
| B1 | binds |  |
| B2 |  | binds |
